Patent US20210101984A1 (JIANGSU HENGRUI MEDICINE, published 2021)

T1: murine B7-H3 antigen (R&D cat# 1397-B3-050/CF) (murine, UniProt Q8VE98 29-244)
T1 construct: Commercial protein; also called mouse B7-H3
T1 sequence: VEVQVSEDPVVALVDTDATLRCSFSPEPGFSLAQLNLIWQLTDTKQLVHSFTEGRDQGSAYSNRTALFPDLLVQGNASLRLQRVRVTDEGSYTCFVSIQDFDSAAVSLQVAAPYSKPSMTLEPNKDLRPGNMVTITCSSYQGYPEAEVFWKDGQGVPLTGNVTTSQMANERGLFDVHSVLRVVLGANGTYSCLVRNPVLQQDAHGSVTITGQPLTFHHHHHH


Tests used:
[1] = target: T1, murine B7-H3 antigen (R&D cat# …); assay: SPR (Biacore T200), antibody captured on Protein A chip, antigen in flow, 1:1 Langmuir fit
From the text: A biosensor chip Protein A (Cat. # 29127556, GE) was used to affinity capture a certain amount of antibody to be tested. A series diluted of human 2Ig-B7-H3 antigen (Cat. #1949-B3-050/CF, R&D), human 4Ig-B7-H3 antigen (Cat. #11188-H08H, Sino Biological) or murine B7-H3 antigen (Cat. # 1397-B3-050/CF, R&D) was flowed through the surface of the chip. Real-time reaction signal was detected by using Biacore instrument (Biacore T200, GE), in order to obtain association and dissociation curves. After completion of each cycle of dissociation, the biochip was washed and regenerated with glycine-hydrochloric acid regeneration solution (pH 1.5) (Cat.#BR-1003-54, GE). The buffer used in the experiment was HBS-EP buffer solution (pH 7.4) (Cat. # BR-1001-88, GE).
The experimental data was fitted with BIA evaluation version 4.1 GE software in a (1:1) Langmuir model to obtain affinity values.

[2] = target: B7-H3 on U87MG tumor cells (human) (UniProt Q5ZPR3); assay: flow cytometry on U87MG cells, APC anti-human IgG Fc detection, geometric mean fluorescence
Chain of B7-H3 on U87MG tumor cells (human) (Q5ZPR3 29-534): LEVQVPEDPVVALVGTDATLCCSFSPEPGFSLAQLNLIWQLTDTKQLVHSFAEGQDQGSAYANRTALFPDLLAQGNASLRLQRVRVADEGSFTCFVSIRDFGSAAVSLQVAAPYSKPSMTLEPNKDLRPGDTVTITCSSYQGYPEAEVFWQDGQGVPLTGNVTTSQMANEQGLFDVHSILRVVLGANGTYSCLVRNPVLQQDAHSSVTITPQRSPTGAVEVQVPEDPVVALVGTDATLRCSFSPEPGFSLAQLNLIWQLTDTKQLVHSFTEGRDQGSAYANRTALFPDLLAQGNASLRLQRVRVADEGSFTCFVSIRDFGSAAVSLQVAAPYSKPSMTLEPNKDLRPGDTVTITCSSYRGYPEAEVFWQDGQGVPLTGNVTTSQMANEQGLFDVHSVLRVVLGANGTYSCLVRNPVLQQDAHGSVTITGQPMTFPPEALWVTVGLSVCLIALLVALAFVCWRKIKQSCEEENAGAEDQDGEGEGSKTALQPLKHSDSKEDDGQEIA

Row | Binder | Kd [1] [nM] | EC50 (read off the curve) [2] [nM]
1 | h1702-IgG1 (antibody, V domains shown, Fully human IgG1 with lambda light chain, from an scFv phage library, expressed in HEK293E cells) VH: QVQLVQSGGGVVQPGTSLRLSCAASGFIFSSSAMHWVRQAPGKGLEWVAVISYDGSNKYYVDSVKGRFTISRDNSKNTLYLQMNSLRAEDTAVYYCARSARLYASFDYWGQGALVTVSS VL: QTVVTQEPSFSVSPGGTVTLTCGLSSGSVSTSHYPSWYQQTPGQAPRMLIYNTNTRSSGVPDRFSGSILGNKAALTITGAQADDESDYYCAIHVDRDIWVFGGGTKLTVLG | 1470 | 2
2 | h1703-IgG1 (antibody, V domains shown, Fully human IgG1 with kappa light chain, from an scFv phage library, expressed in HEK293E cells) VH: QVQLQESGGGLVQPGGSLRLSCAASGFTFSSYAMSWVRQAPGKGLEWVSAISGSGGSTYYADSVKGRYTISRDNSKNTLYLQMNSLRAEDTAVYYCAKGVGPVHALDVWGQGTTVTVSS VL: DIRLTQSPSSLSASVGDRVTITCRASQSISTYLNWYQQKPGKAPILLINAVSGLQSGVPSRFSGSGSGTHFTLTITSLQPEDFATYYCQQSYSTPMWTFGQGTKVEIKR | 502 | 
